Measurements taken from article PMC3203581.
Like-named read-outs stand apart in the source and are kept apart here.

What was measured:
tvMyb2 40-156 [1] = molecular target: T1, tvMyb2 40-156 (Trichomonas vaginalis, UniProt Q58HP3 40-156); assay: X-ray crystallography
T1 sequence: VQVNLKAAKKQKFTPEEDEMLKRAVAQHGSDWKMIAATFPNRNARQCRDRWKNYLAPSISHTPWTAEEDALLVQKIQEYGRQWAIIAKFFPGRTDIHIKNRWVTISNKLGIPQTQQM

tvMyb2 40-156 [2] = molecular target: T1, tvMyb2 40-156; assay: X-ray crystallography; remark: listed apart in the source

B1: MRE-1-12 (dsDNA)
DNA 1: ATAACGATATTT
DNA 2: AAATATCGTTAT
binding result (tvMyb2 40-156 [1]): binds

B2: MRE-2-13 (dsDNA)
DNA 1: CTGTATCGTCTTG
DNA 2: CAAGACGATACAG
binding result (tvMyb2 40-156 [2]): binds
